Experimental data: patent US20260337282 (published 2026)
Changes are numbered by the printed parent chain. In names and notes the source's numbering stands.

T1: mouse CCR8 (mouse)
T1 chain: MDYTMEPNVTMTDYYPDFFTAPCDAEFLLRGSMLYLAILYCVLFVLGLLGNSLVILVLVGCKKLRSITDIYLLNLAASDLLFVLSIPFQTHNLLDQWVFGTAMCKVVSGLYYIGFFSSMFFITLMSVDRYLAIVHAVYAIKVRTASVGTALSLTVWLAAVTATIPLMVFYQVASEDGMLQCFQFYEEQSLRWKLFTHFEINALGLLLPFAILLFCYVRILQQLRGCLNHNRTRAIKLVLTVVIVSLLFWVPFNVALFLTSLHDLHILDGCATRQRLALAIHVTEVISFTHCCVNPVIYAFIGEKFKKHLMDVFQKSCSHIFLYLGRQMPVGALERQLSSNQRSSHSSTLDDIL

T2: cynomolgus CCR8 (cynomolgus)
T2 chain: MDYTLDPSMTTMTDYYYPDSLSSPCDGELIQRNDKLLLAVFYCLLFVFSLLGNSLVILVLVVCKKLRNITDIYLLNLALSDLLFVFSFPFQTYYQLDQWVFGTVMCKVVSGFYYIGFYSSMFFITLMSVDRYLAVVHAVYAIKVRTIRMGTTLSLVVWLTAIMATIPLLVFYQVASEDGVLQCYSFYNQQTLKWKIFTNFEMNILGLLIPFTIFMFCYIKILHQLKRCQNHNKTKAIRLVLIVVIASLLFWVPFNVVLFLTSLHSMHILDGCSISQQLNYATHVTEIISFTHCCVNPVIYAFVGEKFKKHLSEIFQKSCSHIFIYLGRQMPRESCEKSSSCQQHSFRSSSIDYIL

T3: human CX3CR1 (human)
T3 chain: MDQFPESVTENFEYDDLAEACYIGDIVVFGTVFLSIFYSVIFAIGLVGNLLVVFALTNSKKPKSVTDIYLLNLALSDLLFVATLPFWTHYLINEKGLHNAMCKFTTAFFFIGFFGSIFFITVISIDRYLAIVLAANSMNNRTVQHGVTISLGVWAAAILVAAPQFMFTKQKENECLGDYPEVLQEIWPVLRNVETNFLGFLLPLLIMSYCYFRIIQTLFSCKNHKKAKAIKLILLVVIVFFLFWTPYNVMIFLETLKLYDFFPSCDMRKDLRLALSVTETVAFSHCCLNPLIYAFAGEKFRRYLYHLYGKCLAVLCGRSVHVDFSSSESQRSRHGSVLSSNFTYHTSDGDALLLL

T4: human CCR2 (human)
T4 chain: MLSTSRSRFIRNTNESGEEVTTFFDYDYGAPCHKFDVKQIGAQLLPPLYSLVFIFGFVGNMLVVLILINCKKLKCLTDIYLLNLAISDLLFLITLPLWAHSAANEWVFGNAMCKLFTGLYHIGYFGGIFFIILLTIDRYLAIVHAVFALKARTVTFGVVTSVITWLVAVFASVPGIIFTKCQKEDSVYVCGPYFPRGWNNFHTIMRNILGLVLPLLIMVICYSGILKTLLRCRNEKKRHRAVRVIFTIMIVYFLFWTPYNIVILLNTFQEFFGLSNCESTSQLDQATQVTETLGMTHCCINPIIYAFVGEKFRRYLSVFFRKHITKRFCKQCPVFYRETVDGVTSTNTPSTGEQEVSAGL

T5: human CCR4 (human)
T5 chain: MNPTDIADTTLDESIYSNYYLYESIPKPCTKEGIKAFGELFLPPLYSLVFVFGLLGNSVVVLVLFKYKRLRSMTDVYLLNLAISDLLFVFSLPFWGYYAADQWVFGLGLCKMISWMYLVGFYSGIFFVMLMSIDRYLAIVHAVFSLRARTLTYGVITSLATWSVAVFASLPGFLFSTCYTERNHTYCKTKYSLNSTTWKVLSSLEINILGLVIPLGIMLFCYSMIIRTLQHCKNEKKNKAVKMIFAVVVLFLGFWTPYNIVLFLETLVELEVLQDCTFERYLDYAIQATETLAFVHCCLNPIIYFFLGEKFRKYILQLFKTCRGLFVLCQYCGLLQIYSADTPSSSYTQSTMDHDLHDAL

B1: 11F5-N3S-Y5V-11F5 (antibody, V domains shown)
VH: EVQLVESGGGVVQPGRSLRLSCAASGFTFSSYVVHWVRQAPGKGLEWVAVISYDGDNKFYADSVKGRFTISRDNSKNTLYLQMNSLRTEDTAVYYCARGRSYVYYYGLDVWGQGTTVTVSS
VL: DIVMTQTPLSLSVTPGQPASISCKSSQSLLYSDGKTYLYWYLQKAGQPPQLLIYEVSNRFSGVPDRFSGSGSGTDFTLKISRVEAEDVGVFYCMQSLKVPPTFGQGTKVDIK
B2: 11F5 (antibody, V domains shown)
VH: B1 VH with S101N, V103Y
VL: B1 VL
B3: 11F5-Y5V-11F5 (antibody, V domains shown)
VH: B1 VH with S101N
VL: B1 VL
B4: 11F5-Y5V-Y6N-11F5 (antibody, V domains shown)
VH: B1 VH with S101N, Y104N
VL: B1 VL
B5: 11F5-N3S-11F5 (antibody, V domains shown)
VH: B1 VH with V103Y
VL: B1 VL
B6: 11F5-Y6N-11F5 (antibody, V domains shown)
VH: B1 VH with S101N, V103Y, Y104N
VL: B1 VL
B7: 11F5-N3S-Y5V-Y6N-11F5 (antibody, V domains shown)
VH: B1 VH with Y104N
VL: B1 VL
B8: 11F5-N3S-Y6N-11F5 (antibody, V domains shown)
VH: B1 VH with V103Y, Y104N
VL: B1 VL
B9: 11F8 (antibody, V domains shown)
VH: B1 VH with E1Q, S31T, V34M, D56N, F59Y, T69I, Y80F, T88G, Y104N
VL: B1 VL with A45P, Q50H, D65K, F91Y, L97V, V99I, P101L, Q105G, D110E
B10: Mogamulizumab analog-SI (antibody, V domains shown)
VH: EVQLVESGGDLVQPGRSLRLSCAASGFIFSNYGMSWVRQAPGKGLEWVATISSASTYSYYPDSVKGRFTISRDNAKNSLYLQMNSLRVEDTALYYCGRHSDGNFAFGYWGQGTLVTVSS
VL: DVLMTQSPLSLPVTPGEPASISCRSSRNIVHINGDTYLEWYLQKPGQSPQLLIYKVSNRFSGVPDRFSGSGSGTDFTLKISRVEAEDVGVYYCFQGSLLPWTFGQGTKVEIK
B11: 11B12 (antibody, V domains shown)
VH: QVQLVESGGGVVQPGRSLRLSCAASGFSFSSYVMHWVRQAPGKGLEWVAVISYDGSDKYYADSVKGRFTISRDNSKNTLFLQMNSLRPEDTAVYYCARGRGYRYGQSYYYGMDVWGQGTTVTVSS
VL: B1 VL with A45P, L51I, Y54F, F91Y, L97I, V99L, P101L, Q105G, D110E
B12: Plozalizuzumab analog (antibody, V domains shown)
VH: EVQLVESGGGLVKPGGSLRLSCAASGFTFSAYAMNWVRQAPGKGLEWVGRIRTKNNNYATYYADSVKDRFTISRDDSKNTLYLQMNSLKTEDTAVYYCTTFYGNGVWGQGTLVTVSS
VL: DVVMTQSPLSLPVTLGQPASISCKSSQSLLDSDGKTFLNWFQQRPGQSPRRLIYLVSKLDSGVPDRFSGSGSGTDFTLKISRVEAEDVGVYYCWQGTHFPYTFGQGTRLEIK
B13: 10A11 analog (antibody, V domains shown)
VH: EVQLVESGGALVKPGGSLRLSCAASGFTFSTYALYWVRQAPGKGLEWVGRIRSKSNNYATYYADSVKDRFTISRDDSKNTLYLQMNSLKTEDTAVYYCTRARFYYSDYGYAMDYWGQGTLVTVSS
VL: DIVMTQSPDSLAVSLGERATINCRSSKSLLHSNRNTYLYWYQQKPGQPPKLLIYRMSQLASGVPDRFSGSGSGTDFTLTISSLQAEDVAVYYCMQHLEYPLTFGQGTKLEIKR
B14: Leronlimab analog (antibody, V domains shown)
VH: EVQLVESGGGLVKPGGSLRLSCAASGYTFSNYWIGWVRQAPGKGLEWIGDIYPGGNYIRNNEKFKDKTTLSADTSKNTAYLQMNSLKTEDTAVYYCGSSFGSNYVFAWFTYWGQGTLVTVSS
VL: DIVMTQSPLSLPVTPGEPASISCRSSQRLLSSYGHTYLHWYLQKPGQSPQLLIYEVSNRFSGVPDRFSGSGSGTDFTLKISRVEAEDVGVYYCSQSTHVPLTFGQGTKVEIK

Target: human CCR8 (human)
Assay: FACS

Sequence of human CCR8 (human) (chain, as listed by the source): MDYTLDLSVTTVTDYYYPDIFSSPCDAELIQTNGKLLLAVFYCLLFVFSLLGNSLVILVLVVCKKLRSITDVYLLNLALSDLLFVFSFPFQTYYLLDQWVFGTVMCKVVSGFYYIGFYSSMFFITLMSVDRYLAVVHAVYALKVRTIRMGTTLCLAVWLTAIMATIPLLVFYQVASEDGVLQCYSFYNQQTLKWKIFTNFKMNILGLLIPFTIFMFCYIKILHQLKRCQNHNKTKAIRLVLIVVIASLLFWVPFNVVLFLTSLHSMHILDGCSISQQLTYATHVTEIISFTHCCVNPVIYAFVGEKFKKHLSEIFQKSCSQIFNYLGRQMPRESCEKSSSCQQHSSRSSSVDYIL

Binder | EC50
B1 | 0.228 µg/mL
B2 | 0.207 µg/mL
B3 | 0.714 µg/mL
B4 | 0.592 µg/mL
B5 | 0.168 µg/mL
B6 | 0.254 µg/mL
B7 | 0.21 µg/mL
B8 | 0.174 µg/mL

Target: human CCR5 (human)
Assay: FACS

Sequence of human CCR5 (human) (O14692 whole entry): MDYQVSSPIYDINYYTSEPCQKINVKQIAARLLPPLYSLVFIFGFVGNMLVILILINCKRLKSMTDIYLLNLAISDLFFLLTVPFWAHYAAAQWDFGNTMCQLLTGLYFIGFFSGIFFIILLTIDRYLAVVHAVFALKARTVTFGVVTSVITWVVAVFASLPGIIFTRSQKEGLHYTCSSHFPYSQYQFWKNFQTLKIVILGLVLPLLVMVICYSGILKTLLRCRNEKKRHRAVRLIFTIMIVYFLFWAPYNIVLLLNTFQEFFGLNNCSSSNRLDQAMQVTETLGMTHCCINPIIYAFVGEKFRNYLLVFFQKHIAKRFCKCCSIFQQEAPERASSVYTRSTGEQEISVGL

Binder | binding result
B9 | no binding
B10 | no binding
B11 | no binding
B2 | no binding
B12 | no binding

Target: human CCR8 (human)
Assay: FACS
Remark: another data set of the same source

Binder | EC50
B9 | 0.104 µg/mL
B11 | 0.194 µg/mL
B2 | 0.287 µg/mL

Target: T1, mouse CCR8
Assay: FACS

Binder | binding result
B13 | no binding

Target: human CCR8 (human)
Assay: FACS
Remark: another data set of the same source

Binder | EC50
B9 | 0.0814 µg/mL
B11 | 0.21 µg/mL
B2 | 0.285 µg/mL

Target: T2, cynomolgus CCR8
Assay: FACS

Binder | EC50
B9 | 0.71 µg/mL
B11 | 0.103 µg/mL
B2 | > 2 µg/mL

Target: T3, human CX3CR1
Assay: FACS

Binder | binding result
B9 | no binding
B10 | no binding
B11 | no binding
B2 | no binding
B14 | no binding
B12 | no binding

Target: T1, mouse CCR8
Assay: FACS
Remark: another data set of the same source

Binder | EC50
B1 | 0.129 µg/mL
B2 | 0.168 µg/mL
B3 | 0.762 µg/mL
B4 | 0.546 µg/mL
B5 | 0.119 µg/mL
B6 | 0.198 µg/mL
B7 | 0.141 µg/mL
B8 | 0.105 µg/mL

Target: T4, human CCR2
Assay: FACS

Binder | binding result
B9 | no binding
B10 | no binding
B11 | no binding
B2 | no binding
B14 | no binding

Target: T1, mouse CCR8
Assay: FACS
Remark: another data set of the same source

Binder | EC50
B9 | 0.127 µg/mL
B11 | 0.177 µg/mL
B2 | 0.4 µg/mL
B13 | > 10 µg/mL

Target: T1, mouse CCR8
Assay: FACS
Remark: another data set of the same source

Binder | EC50
B9 | 0.127 µg/mL
B11 | 0.177 µg/mL
B2 | 0.4 µg/mL

Target: human CCR8 (human)
Assay: FACS
Remark: another data set of the same source

Binder | binding result
B10 | no binding
B14 | no binding
B12 | no binding

Target: T5, human CCR4
Assay: FACS

Binder | binding result
B9 | no binding
B11 | no binding
B2 | no binding
B14 | no binding
B12 | no binding

Target: human CCR8 (human)
Assay: FACS
Remark: another data set of the same source

Binder | EC50
B9 | 0.104 µg/mL
B11 | 0.194 µg/mL
B2 | 0.287 µg/mL
B13 | 0.058 µg/mL
